Test results taken from patent publication US7125979.
Non-standard residues stand in square brackets, D forms with d. No end group written: not given here.

Columns and labels:
Assay in all cases: cell-based or functional assay
NPY Y2 receptor (mouse) = NPY Y2 receptor (mouse) (UniProt P97295)
[1] = target: µ-opioid receptor (mouse) (UniProt P42866)
MC3-R (mouse) = MC3-R (mouse) (UniProt P33033)
MC3-R (mouse), sequence (P33033 whole entry): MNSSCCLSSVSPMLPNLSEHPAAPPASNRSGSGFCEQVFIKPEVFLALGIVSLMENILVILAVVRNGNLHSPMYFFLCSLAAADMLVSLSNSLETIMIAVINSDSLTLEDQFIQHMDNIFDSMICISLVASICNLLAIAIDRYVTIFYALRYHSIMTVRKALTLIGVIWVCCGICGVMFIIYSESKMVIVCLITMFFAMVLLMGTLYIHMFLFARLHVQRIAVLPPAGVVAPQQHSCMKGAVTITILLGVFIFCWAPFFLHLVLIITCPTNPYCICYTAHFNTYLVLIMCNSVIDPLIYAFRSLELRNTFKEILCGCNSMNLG

NPY Y2 receptor (mouse), sequence (P97295 whole entry): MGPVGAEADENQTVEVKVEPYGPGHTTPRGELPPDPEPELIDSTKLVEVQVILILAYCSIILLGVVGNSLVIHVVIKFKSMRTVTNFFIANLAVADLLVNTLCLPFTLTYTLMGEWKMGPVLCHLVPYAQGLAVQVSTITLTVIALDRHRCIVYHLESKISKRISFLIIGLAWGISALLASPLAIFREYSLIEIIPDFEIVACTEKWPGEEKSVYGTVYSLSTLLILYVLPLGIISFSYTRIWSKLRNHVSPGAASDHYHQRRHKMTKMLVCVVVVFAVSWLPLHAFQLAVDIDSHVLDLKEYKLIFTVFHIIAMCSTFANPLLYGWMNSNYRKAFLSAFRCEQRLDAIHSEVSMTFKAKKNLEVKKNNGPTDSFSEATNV
µ-opioid receptor (mouse), sequence (P42866 whole entry): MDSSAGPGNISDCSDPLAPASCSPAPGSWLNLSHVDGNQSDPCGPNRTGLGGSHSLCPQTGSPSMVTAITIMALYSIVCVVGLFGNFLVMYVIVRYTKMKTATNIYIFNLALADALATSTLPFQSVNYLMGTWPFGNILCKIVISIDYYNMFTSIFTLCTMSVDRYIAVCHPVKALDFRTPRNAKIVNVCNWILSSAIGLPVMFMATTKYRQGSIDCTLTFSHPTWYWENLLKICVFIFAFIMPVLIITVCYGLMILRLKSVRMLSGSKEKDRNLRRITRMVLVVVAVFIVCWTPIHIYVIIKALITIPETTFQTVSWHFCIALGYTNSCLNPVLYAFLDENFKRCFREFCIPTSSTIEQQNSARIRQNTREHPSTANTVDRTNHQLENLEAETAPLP

Question: Which reduction of the frequency of inhibitory postsynaptic currents (IPSCs) onto POMC neurons (NPY Y2 receptor (mouse)) does the source give for “N-acetyl (Leu^28, Leu^31) NPY (24-36) (from UniProt P01303 52-64) (peptide)” here?
Answer: 44.4%

Question: With “neuropeptide Y (from UniProt P01303 29-64)” as the molecule, how does the decrease of the frequency of GABAergic IPSCs in POMC cells (100 nM NPY) (NPY Y2 receptor (mouse)) read?
Answer: 55%

Question: YGGFM (peptide, UniProt P01210 100-104, looked up) [met-enkephalin] was tested. Which hyperpolarization of the membrane potential of POMC cells (whole cell recording, 30 µM Met-Enk) [1] did it give?
Answer: 10 to 20 mV

Question: With YVMGHFR[dW]DRFG (peptide, UniProt P01189 77-88, looked up, ends and bridges not checked) [D-Trp^8-γMSH] as the molecule, how does the frequency of GABAergic IPSCs recorded from POMC neurons (7 nM) (MC3-R (mouse)) read?
Answer: 280%

Question: What about the hyperpolarization of POMC neurons (7 nM) (MC3-R (mouse)) of the same molecule?
Answer: -5.5 mV
